Here are results for 13 substances from patent publication US7422862B2, “Methods for identifying modulators of apoptosis” (The Burnham Institute, priority 2001, dated 2008).

No end group written: not given here.

Experiment [1] has as its target T1, Bax (Homo sapiens, UniProt Q07812). In words: Co-immunoprecipitation of GFP-Humanin fusion polypeptides with Bax in transfected cells. It counts as binding. Also noted: expressed in transfected cells; host or cells: HEK293T; key to Bax binding: +: ability to bind Bax was determined by co-immunoprecipitation assay; −: lacked Bax-binding activity. Conditions: for Bax binding: GFP-fusion polypeptides, co-immunoprecipitation. The text has this: Humanin (HN) cDNA was sub-cloned into a Green Fluorescence Protein (GFP) expression vector GFP-Cl at the Xhol/Hind III sites, producing a GFP-HN fusion polypeptide. GFP and GFP-HN were transfected into 293T cells with pcDNA3-HA-Bax. Cell lysates from these cells were immunoprecipitated with anti-GFP antibody and subsequently blotted with anti-HA antibody. The lysates were also blotted with ani-GFP antibody to confirm polypeptide expression. […] The data shown were obtained using the cytosolic form of Humanin; however, both cytosolic and mitochondrial forms of Humanin were tested and the results were the same.
Co-immunoprecipitation assays were performed using Humanin polypeptides expressed as fusion polypeptides with the Green Fluorescent Protein (GFP) in human cells. Wild-type Humanin fused to GFP is referred to as GFP-HN and a mutant form of Humanin, where the cysteine at position 8 is replaced with proline, fused to GFP is referred to as GFP-C8P. […] Immunoblot analysis of lysates of the transfected cells confirmed production of all proteins. In addition, GFP-HN also coimmunoprecipitated endogenous Bax from cell lines, which contain relatively high levels of the Bax protein.
Immunoblotting and immunoprecipitations were performed as follows. Immunoblotting was performed as described previously (Fields and Song, Nature 340:245-246 (1989)). For co-immunoprecipitations, cells were cultured in 50 uM […] Valine Alanine Asparate fluoromethyl-ketone (zVAD-fmk) to prevent apoptosis. Cells were suspended in lysis buffer (50 mM Tris-HCl, pH7.4; 150 mM NaCl; 20 mM EDTA; 50 mM NaF; 0.5% NP-40; 0.1 mM Na3VO4; 20 ug/ml Leupeptin; 20 ug/ml Aprotinin; 1 mM DTT; and 1 mM PMSF). Lysates (200 ul diluted in 1 ml final volume of lysis buffer) were cleared by incubation with 15 ul of protein G-Sepharose 4B (Zymed) and then incubated with 15 ul of polyclonal antibody and 15 ul of protein G at 4° C. overnight. Beads were then washed 4 times with 1.5 mls lysis buffer before boiling in Laemmli sample buffer and performing SDS-PAGE/immunoblotting.
(§1) In order to explore whether a correlation exists between Humanin binding to Bax and Humanin-mediated suppression of apoptosis, Bax was co-expressed with various GFP-fusion polypeptides encoding wild-type, full-length Humanin or various truncation and site-specific mutants of Humanin (Table 1). Expression of all GFP-fusion polypeptides was confirmed by immunoblotting, and ability to bind Bax was determined by co-immunoprecipitation assay. Each Humanin mutant was scored for ability to suppress apoptosis induced by Bax over-expression by >50% using a 3:1 ratio of HN:Bax plasmid DNA. […] Based on these studies, an active region of the 24 amino-acid Humanin peptide, mapped to residues 7-17.

For experiment [2], the target named is T1, Bax. The experiment is described as follows: Suppression of apoptosis induced by Bax over-expression (Humanin mutants). It counts as cell-based. Also noted: expressed in transfected cells; host or cells: HEK293T. Conditions: GFP-fusion polypeptides, 3:1 ratio of HN:Bax plasmid DNA. Here is the method: (§2) Apoptosis assays were performed as follows. Both floating and adherent cells (after trypsinization) were collected 48 hr after transfection, fixed, and stained using 4′,6-diamidine-2′-phenylindole dihydrochloride (DAPI) for assessing apoptosis based on nuclear fragmentation and chromatin condensation (Fields and Song, supra (1989)).
as §1
Cell culture and transfections were performed as follows. CSM14.1, HCT116, Cos-7, and SF268 cells were cultured in DMEM high glucose media (Irvine Scientific, Santa Ana, Calif.) containing 10% fetal bovine serum (FBS). PC-3 cells were cultured with RPMI 1640 media containing 10% FBS. Transfection of cells was performed using SuperFect (Qiagen, Chatsworth, Calif.) or LipofectaminePLUS reagent ([…]).

In experiment [3] the target is T1, Bax. The experiment is described as follows: Bax-induced apoptosis in transfected neuronal cells (DAPI staining). It counts as cell-based. Also noted: expressed in transfected cells. Particulars: CSM14.1 cells, 48 h, DAPI. Here is the method:
(A) HEK293T cells were transfected with pcDNA3-HA-Bax together with plasmids encoding GFP, GFP-HN(N), or GFP-HN(M). Cell lysates were immunoprecipitated with polyclonal anti-GFP antibody. Immunoprecipitates (IP) or cell lysates were analyzed by immunoblotting using anti-HA or anti-GFP antibodies, respectively. (B) CSM14.1 neuronal cells were co-transfected with pcDNA3-HA-Bax together with plasmids encoding GFP, GFP-HN(N), or GFP-HN(M). Percent apoptosis was determined 48 h later by DAPI staining (mean±SD; n=3).
Rat neuronal cell line CSM14.1 cells were transfected with various plasmids using the Lipofectamine reagent (Invitrogen). For transfection, 10×10^5 cells were plated per well using 6 well plates. Each well received 1 μg DNA plus […] of Lipofectamine. After 24 hours of transfection, the percentage of cell death was determined using 4′-6-diamidino-2-phenylindole (DAPI) staining. […] The data shown were obtained using the cytosolic form of Humanin; however, both cytosolic and mitochondrial forms of Humanin were tested and the results were the same.
as §2
Since Humanin co-immunoprecipitates with Bax but not Bak, the effects of Humanin over-expression on apoptosis induced by these members of the Bcl-2 family was compared. […] Similar results were obtained regardless of whether Humanin was fused to the N- or C-terminus of GFP, with both of these GFP fusion polypeptides localizing to the cytosol of cells.

T1 sequence (Q07812 whole entry, species assumed, the tested form may be a part): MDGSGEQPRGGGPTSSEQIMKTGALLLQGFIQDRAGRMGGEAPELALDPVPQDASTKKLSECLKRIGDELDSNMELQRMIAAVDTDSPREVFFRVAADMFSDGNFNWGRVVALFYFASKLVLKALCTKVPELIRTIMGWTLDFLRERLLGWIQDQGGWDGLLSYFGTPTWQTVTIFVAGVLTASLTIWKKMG

On to “1-12: GFP-fusion of Humanin truncation, residues 1-12 (MAPRGFSCLLLL; also: fused to GFP; UniProt Q8IVG9 1-12, looked up, fragment)”, for which the Bax binding result in the experiment with Bax [1] was “−”. For the same substance, the Bax suppression entry with Bax [2] is reported as “− (failed to protect against Bax-induced apoptosis)”.

“1-15: GFP-fusion of Humanin truncation, residues 1-15 (MAPRGFSCLLLLTSE; also: fused to GFP; UniProt Q8IVG9 1-15, looked up, fragment)”: the Bax binding entry in the experiment with Bax [1] is “−”. Besides, the Bax suppression result in the experiment with Bax [2] is given as “− (failed to protect against Bax-induced apoptosis)”.

Take “1-17: GFP-fusion of Humanin truncation, residues 1-17 (MAPRGFSCLLLLTSEID; also: fused to GFP; UniProt Q8IVG9 1-17, looked up, fragment)”: the Bax binding entry with Bax [1] was “+”. In addition, the Bax suppression entry with Bax [2] is on record as “+ (ability to suppress apoptosis induced by Bax over-expression by >50%)”.

In the case of “3-17: GFP-fusion of Humanin truncation, residues 3-17 (PRGFSCLLLLTSEID; also: fused to GFP; UniProt Q8IVG9 3-17, looked up, fragment)”, the Bax binding entry in the experiment with Bax [1] was “+”. The Bax suppression entry with Bax [2] is “+ (ability to suppress apoptosis induced by Bax over-expression by >50%)”.

“3-18: GFP-fusion of Humanin truncation, residues 3-18 (PRGFSCLLLLTSEIDL; also: fused to GFP; UniProt Q8IVG9 3-18, looked up, fragment)”: the Bax binding result in the experiment with Bax [1] is recorded as “+”. In addition, the Bax suppression result with Bax [2] is reported as “+ (ability to suppress apoptosis induced by Bax over-expression by >50%)”.

Take “3-19: GFP-fusion of Humanin truncation, residues 3-19 (PRGFSCLLLLTSEIDLP; also: fused to GFP; UniProt Q8IVG9 3-19, looked up, fragment)”: the Bax binding entry in the experiment with Bax [1] is “+”. Moreover, the Bax suppression result with Bax [2] is “+ (ability to suppress apoptosis induced by Bax over-expression by >50%)”.

As to “3-24: GFP-fusion of Humanin truncation, residues 3-24 (PRGFSCLLLLTSEIDLPVKRRA; also: fused to GFP; UniProt Q8IVG9 3-24, looked up, fragment)”, in the experiment with Bax [1], the Bax binding result was “+”. The Bax suppression result with Bax [2] is “+ (ability to suppress apoptosis induced by Bax over-expression by >50%)”.

Consider “4-24: GFP-fusion of Humanin truncation, residues 4-24 (RGFSCLLLLTSEIDLPVKRRA; also: fused to GFP; UniProt Q8IVG9 4-24, looked up, fragment)”, for which the Bax binding result with Bax [1] is “+”. The Bax suppression entry in the experiment with Bax [2] is “+ (ability to suppress apoptosis induced by Bax over-expression by >50%)”.

“7-24: GFP-fusion of Humanin truncation, residues 7-24 (SCLLLLTSEIDLPVKRRA; also: fused to GFP; UniProt Q8IVG9 7-24, looked up, fragment)”: the Bax binding result with Bax [1] is “+”. Also, the Bax suppression entry with Bax [2] was “+ (ability to suppress apoptosis induced by Bax over-expression by >50%)”.

Regarding “10-24: GFP-fusion of Humanin truncation, residues 10-24 (LLLTSEIDLPVKRRA; also: fused to GFP; UniProt Q8IVG9 10-24, looked up, fragment)”, in the experiment with Bax [1], the Bax binding entry was “−”. Besides, in the experiment with Bax [2], the Bax suppression result is recorded as “− (failed to protect against Bax-induced apoptosis)”.

Take “13-24: GFP-fusion of Humanin truncation, residues 13-24 (TSEIDLPVKRRA; also: fused to GFP; UniProt Q8IVG9 13-24, looked up, fragment)”: the Bax binding result in the experiment with Bax [1] was “−”. In addition, in the experiment with Bax [2], the Bax suppression entry is recorded as “− (failed to protect against Bax-induced apoptosis)”.

Take “GFP Only: Green Fluorescent Protein control without Humanin [reference compound]”: the Bax binding result in the experiment with Bax [1] was “−”. The Bax suppression result in the experiment with Bax [2] is “− (failed to protect against Bax-induced apoptosis)”.

“GFP-HN(M): mitochondria-encoded Humanin (SEQ ID NO:3, 21 amino acids, Met at position 16) as GFP fusion”: the “suppression of Bax-induced apoptosis, nuclear vs mitochondria-encoded form” value with Bax [3] is recorded as “suppressed to comparable extents”. The “co-immunoprecipitation with tagged Bax” value with Bax [1] (293T/HEK293T cells, anti-GFP immunoprecipitation) is “comparable amounts”.
